Here are results for one molecule from patent US20250326817A1 (LA JOLLA INSTITUTE FOR IMMUNOLOGY, published 2025).

Assay [1] concerns the target T1, mouse CD160 residues I30-H154 with C-terminal …, refolded from E. coli inclusion bodies (mouse, UniProt O88875 30-154, biotin (mCD160-biotin in the cell staining assay; site not stated)).
T1 construct: range 30-154; also called mCD160; mCD160-biotin
T1 sequence: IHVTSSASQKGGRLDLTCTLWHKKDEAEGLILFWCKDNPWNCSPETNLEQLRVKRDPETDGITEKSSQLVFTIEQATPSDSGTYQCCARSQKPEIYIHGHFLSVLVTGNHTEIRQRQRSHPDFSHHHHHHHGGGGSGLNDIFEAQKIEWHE
Put plainly: Octet BLI, mHVEM-hIgG1 immobilised (text says surface plasmon resonance). The text has this:
(§1) The results were exported and then analyzed using Prism 5 (GraphPad Software). Final response curves were generated after subtracting the responses of the control groups.

Assay [2] concerns the target T2, single chain homotrimeric mouse LIGHT extracellular domain (G73-V239), N-terminal HHHHHHGG, joined by two … (mouse, UniProt Q9QYH9 73-239).
T2 construct: Soluble analyte of the Octet assay; from Expi293 cells; also called mLIGHT
T2 sequence: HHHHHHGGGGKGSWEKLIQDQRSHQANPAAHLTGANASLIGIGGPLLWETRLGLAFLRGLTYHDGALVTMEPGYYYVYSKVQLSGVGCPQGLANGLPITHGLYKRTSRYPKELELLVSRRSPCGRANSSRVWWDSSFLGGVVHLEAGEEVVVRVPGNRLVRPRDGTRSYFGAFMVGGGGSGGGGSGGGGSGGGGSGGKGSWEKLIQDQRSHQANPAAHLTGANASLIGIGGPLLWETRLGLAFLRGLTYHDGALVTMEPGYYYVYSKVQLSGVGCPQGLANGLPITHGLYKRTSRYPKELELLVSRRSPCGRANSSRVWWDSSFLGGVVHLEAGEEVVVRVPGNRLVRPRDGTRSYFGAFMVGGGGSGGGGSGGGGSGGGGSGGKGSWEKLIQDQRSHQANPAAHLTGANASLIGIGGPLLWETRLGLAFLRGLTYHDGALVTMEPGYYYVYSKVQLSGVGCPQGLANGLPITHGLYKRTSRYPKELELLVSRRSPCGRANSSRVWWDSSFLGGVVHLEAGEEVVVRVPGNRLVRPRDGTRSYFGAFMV
The description is as above.
From the text: as §1

For assay [3], the target named is T3, mouse BTLA, soluble protein (analyte of the Octet assay) (mouse, UniProt Q7TSA3 30-183, limits assumed).
T3 construct: The construct is not described; also called mBTLA; mBTLA-penta-His-tag
T3 sequence (looked up): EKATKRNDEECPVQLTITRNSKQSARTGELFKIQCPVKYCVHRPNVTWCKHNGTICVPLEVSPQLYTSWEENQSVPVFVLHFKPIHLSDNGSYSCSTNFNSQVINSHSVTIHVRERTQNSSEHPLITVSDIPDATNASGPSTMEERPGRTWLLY
The assay is described as above.
From the text: as §1

Assay [4] addresses T3, mouse BTLA, soluble protein (analyte of …). Put plainly: Octet bio-layer interferometry, mHVEM-hIgG1 on the sensor, BTLA in solution.
From the text: as §1
For orientation: In BLI a coated tip is dipped into the sample, and binding shifts an interference pattern.

Assay [5] has the same target. The experiment in a line: Octet bio-layer interferometry, mHVEM-hIgG1 on the sensor, mBTLA in solution.
From the text: (§2) Error bars represent results from at least triplicates. […] Ligands BTLA, CD160 and LIGHT are modeled based on the HVEM structures and are shown as labeled surfaces.
as §1

Assay [6] addresses T1, mouse CD160 residues I30-H154 with …. The experiment in a line: Octet bio-layer interferometry, mHVEM-hIgG1 on the sensor, CD160 in solution.
From the text: as §1

The target in assay [7] is T2, single chain homotrimeric mouse LIGHT …. Put plainly: Octet bio-layer interferometry, mHVEM-hIgG1 on the sensor, LIGHT in solution.
From the text: as §1

In assay [8] the target is T1, mouse CD160 residues I30-H154 with …. The experiment in a line: Octet bio-layer interferometry, mHVEM-hIgG1 on the sensor, mCD160 in solution.
From the text: as §2, §1

The target of assay [9] is T2, single chain homotrimeric mouse LIGHT …. Put plainly: Octet bio-layer interferometry, mHVEM-hIgG1 on the sensor, mLIGHT in solution.
From the text: as §2, §1

B1: mouse HVEM (Q39-Q206) H86D-L90A fused to human IgG1 and a hexa-His tag, soluble form (Fc fusion)
chain (part 1 of 2): QPSCRQEEFLVGDECCPMCNPGYHVKQVCSEHTGTVCAPCPPQTYTADANGASKCLPCGVCDPDMGLLTWQECSSWKDTVCRCIPGYFCENQDGSHCSTCLQHTTCPPGQRVEKRGTHDQDTVCADCLTGTFSLGGTQEECLPWTNCSAFQQEVRRGTNSTDTTCSSQ
chain (part 2 of 2): HHHHHH
notes: also called mHVEM^-LIGHT; mHVEM-LIGHT; not shown: human IgG1
For B1, the “fold reduction of binding against wild-type mHVEM” value was about 3 fold in [1] and about 5 fold in assay [3]. Also, in assay [2], the “log-fold decrease in binding against wild-type mHVEM” value is over 3 log-fold. In addition, the Kd (in general, the equilibrium constant for the complex coming apart) in assay [4] came to 5.3 µM; in [5], 5.3 µM; in assay [6] it was 33.5 µM; in [7] it was 31.7 µM; in assay [8], 33.5 µM; in [9], 31.7 µM.
